Results on seven molecules are retold here after article PMC6370319 (Cell reports, 2019).

To fix the notation:
T1: OGT-FLAG (human, UniProt O15294-3 1-1036)
T1 sequence: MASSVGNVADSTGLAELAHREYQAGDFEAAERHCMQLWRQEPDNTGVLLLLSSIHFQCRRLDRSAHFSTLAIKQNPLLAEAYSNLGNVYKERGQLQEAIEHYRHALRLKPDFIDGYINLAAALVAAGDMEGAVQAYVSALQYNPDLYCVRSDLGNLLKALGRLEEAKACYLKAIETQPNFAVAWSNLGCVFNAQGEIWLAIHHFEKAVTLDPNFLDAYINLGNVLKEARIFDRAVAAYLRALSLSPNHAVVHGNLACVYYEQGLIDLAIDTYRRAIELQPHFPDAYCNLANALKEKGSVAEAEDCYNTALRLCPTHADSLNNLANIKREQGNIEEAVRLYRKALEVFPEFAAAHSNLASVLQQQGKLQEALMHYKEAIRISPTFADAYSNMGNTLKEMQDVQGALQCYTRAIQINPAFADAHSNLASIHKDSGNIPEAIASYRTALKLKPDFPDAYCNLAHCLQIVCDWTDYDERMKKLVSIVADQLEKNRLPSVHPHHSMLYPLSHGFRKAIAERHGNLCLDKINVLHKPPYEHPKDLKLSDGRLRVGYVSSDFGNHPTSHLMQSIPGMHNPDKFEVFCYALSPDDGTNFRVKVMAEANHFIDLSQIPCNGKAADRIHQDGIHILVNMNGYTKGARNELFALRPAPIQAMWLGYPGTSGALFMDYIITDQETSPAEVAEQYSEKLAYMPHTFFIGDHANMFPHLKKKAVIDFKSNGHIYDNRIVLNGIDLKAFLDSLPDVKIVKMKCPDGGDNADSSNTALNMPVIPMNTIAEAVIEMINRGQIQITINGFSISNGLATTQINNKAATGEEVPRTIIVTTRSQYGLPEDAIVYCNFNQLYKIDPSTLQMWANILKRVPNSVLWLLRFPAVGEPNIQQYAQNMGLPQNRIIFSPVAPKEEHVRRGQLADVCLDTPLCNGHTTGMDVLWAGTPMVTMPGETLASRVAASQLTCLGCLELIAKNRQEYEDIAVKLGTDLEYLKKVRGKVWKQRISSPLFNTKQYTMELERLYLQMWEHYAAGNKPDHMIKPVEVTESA

B1: FNIP1-D-His6 (domain or fragment)
chain: TEWDIPRNESSDSALGDSESEDTGHDMTRQVSSYYGGEQEDWAEEDEIPFPGSKLIEVSAVQPNIANFGRSLLGGYCSSYVPDFVLQGIGSDERFRQCLMSDLSHAVQHPVLDEPIAEAVCIIADMDKWTVQVASSQRRVTDNKLGKEVLVSSLVSNLLHSTLQLYKHNLSPNFCVMHLEDRLQELYFKSKMLSEYLRGQMRVHVKELGVVLGIESSDLPLLAAVASTHSPYVAQILL
B2: FNIP1-D-His6 S938A (domain or fragment)
chain: TEWDIPRNEASDSALGDSESEDTGHDMTRQVSSYYGGEQEDWAEEDEIPFPGSKLIEVSAVQPNIANFGRSLLGGYCSSYVPDFVLQGIGSDERFRQCLMSDLSHAVQHPVLDEPIAEAVCIIADMDKWTVQVASSQRRVTDNKLGKEVLVSSLVSNLLHSTLQLYKHNLSPNFCVMHLEDRLQELYFKSKMLSEYLRGQMRVHVKELGVVLGIESSDLPLLAAVASTHSPYVAQILL
B3: FNIP1-D-His6 S941A (domain or fragment)
chain: TEWDIPRNESSDAALGDSESEDTGHDMTRQVSSYYGGEQEDWAEEDEIPFPGSKLIEVSAVQPNIANFGRSLLGGYCSSYVPDFVLQGIGSDERFRQCLMSDLSHAVQHPVLDEPIAEAVCIIADMDKWTVQVASSQRRVTDNKLGKEVLVSSLVSNLLHSTLQLYKHNLSPNFCVMHLEDRLQELYFKSKMLSEYLRGQMRVHVKELGVVLGIESSDLPLLAAVASTHSPYVAQILL
B4: FNIP1-D-His6 S948A (domain or fragment)
chain: TEWDIPRNESSDSALGDSEAEDTGHDMTRQVSSYYGGEQEDWAEEDEIPFPGSKLIEVSAVQPNIANFGRSLLGGYCSSYVPDFVLQGIGSDERFRQCLMSDLSHAVQHPVLDEPIAEAVCIIADMDKWTVQVASSQRRVTDNKLGKEVLVSSLVSNLLHSTLQLYKHNLSPNFCVMHLEDRLQELYFKSKMLSEYLRGQMRVHVKELGVVLGIESSDLPLLAAVASTHSPYVAQILL
B5: FNIP1-D-His6 S939A (domain or fragment)
chain: TEWDIPRNESADSALGDSESEDTGHDMTRQVSSYYGGEQEDWAEEDEIPFPGSKLIEVSAVQPNIANFGRSLLGGYCSSYVPDFVLQGIGSDERFRQCLMSDLSHAVQHPVLDEPIAEAVCIIADMDKWTVQVASSQRRVTDNKLGKEVLVSSLVSNLLHSTLQLYKHNLSPNFCVMHLEDRLQELYFKSKMLSEYLRGQMRVHVKELGVVLGIESSDLPLLAAVASTHSPYVAQILL
B6: FNIP1-D-His6 S946A (domain or fragment)
chain: TEWDIPRNESSDSALGDAESEDTGHDMTRQVSSYYGGEQEDWAEEDEIPFPGSKLIEVSAVQPNIANFGRSLLGGYCSSYVPDFVLQGIGSDERFRQCLMSDLSHAVQHPVLDEPIAEAVCIIADMDKWTVQVASSQRRVTDNKLGKEVLVSSLVSNLLHSTLQLYKHNLSPNFCVMHLEDRLQELYFKSKMLSEYLRGQMRVHVKELGVVLGIESSDLPLLAAVASTHSPYVAQILL

The target of the first test is Hsp90α (UniProt P07900). The test is described as follows: FNIP1-FLAG IP from yeast, Hsp90α blot. Conditions: reference: wild type FNIP1-FLAG; sites S948.
For the molecule FNIP1 (from UniProt Q8TF40) S948A, the “binding against the reference” value was “weaker”.

The next test addresses T1, OGT-FLAG. The test is described as follows: pull-down.
Details: not given
In the case of B1, the binding result is recorded as “binds”.
Same read-out and setting: the same measure for B2: “binds”; for B3: “binds”; for B4: “binds”.
Same read-out and setting: the value for B5 was “binds”.
On the same count and under the same terms, the value for B6 was “binds”.
